Laboratory results from patent US20250197467A1 (BRIGHT PEAK THERAPEUTICS, published 2025).

Experiments:
[1] = biological target: T1, IL-18 receptor (IL-18Rαβ) on cells (UniProt Q13478 19-541; O95256 20-599, limits assumed); experiment: cell-based or functional assay
T1 sequence (looked up) 1: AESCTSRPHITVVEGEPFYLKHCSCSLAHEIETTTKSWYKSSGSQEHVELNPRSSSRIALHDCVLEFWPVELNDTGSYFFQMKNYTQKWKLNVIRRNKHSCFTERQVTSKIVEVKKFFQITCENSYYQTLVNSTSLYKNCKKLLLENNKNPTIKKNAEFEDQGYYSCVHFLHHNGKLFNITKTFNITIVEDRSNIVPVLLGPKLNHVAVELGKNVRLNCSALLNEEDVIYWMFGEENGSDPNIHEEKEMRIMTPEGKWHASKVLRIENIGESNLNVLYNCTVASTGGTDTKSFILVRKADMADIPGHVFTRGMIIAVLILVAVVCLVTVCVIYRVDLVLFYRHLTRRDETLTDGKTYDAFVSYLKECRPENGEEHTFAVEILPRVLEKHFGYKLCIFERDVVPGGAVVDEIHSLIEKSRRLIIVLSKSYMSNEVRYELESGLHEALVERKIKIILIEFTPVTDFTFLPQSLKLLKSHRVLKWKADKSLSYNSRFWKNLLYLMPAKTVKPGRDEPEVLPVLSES
T1 sequence (looked up) 2: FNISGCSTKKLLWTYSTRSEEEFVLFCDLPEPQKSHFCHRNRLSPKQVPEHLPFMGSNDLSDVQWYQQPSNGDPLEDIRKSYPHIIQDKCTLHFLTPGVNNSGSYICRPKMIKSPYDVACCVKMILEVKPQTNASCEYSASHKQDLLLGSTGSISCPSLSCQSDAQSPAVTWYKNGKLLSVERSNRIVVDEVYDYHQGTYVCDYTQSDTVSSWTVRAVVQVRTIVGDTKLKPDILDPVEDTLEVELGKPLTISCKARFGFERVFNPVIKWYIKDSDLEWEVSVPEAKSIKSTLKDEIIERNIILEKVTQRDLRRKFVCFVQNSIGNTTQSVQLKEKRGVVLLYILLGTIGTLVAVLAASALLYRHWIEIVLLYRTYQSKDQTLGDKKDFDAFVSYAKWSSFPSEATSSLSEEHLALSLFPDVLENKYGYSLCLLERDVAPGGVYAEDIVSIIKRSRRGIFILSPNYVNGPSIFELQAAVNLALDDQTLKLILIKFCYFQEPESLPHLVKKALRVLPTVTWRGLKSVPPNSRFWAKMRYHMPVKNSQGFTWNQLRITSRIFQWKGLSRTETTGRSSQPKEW

[2] = biological target: T1, IL-18 receptor (IL-18Rαβ) on cells; experiment: cell-based or functional assay; remark: listed apart in the source

B1: C148 (ligand)
chain: YAGKLESKLSIIRNLNDQVLFIDQGNRPLFEDMTDSDARDNAPRTIFIISMYADSQPRGMAVTISVKCEKISTLSAENKIISFKEMNPPDNIKDTKSDIIFFQRSVPGHDNKMQFESSSYEGYFLAAEKERDLFKLILKKEDELGDRSIMFTVQNED
- EC50 (IFNγ stimulation, NK92) [1]: 0.256 nM
- HEK-Blue IL-18R reporter EC50 [2]: 0.00728 nM

B2: C157 (ligand)
chain: YFGKLESKLSIIRNLNDQVLFIDQGNRPLFEDMTDSDARDNAPRTIFIISMYADSQPRGMAVTISVKCEKISTLSAENKIISFKEMNPPDNIKDTKSDIIFFQRSVPGHDNKMQFESSSYEGYFLAAEKERALFKLILKKEDELGDRSIMFTVQNED
- EC50 (IFNγ stimulation, NK92) [1]: 0.056 nM
- HEK-Blue IL-18R reporter EC50 [2]: 0.00195 nM

B3: C165 (ligand)
chain: YFGKLESKLSIIRNLNDQVLFIDQGNRPLFEDMTDSDARDNAPRTIFIISMYKDRQPRGMAVTISVKCEKISTLSAENKIISFKEMNPPDNIKDTKSDIIFFQRSVPGHDNKMQFESSSYEGYFLAAEKERDLFKLILKKEDELGDRSIMFTVQNED
- EC50 (IFNγ stimulation, NK92) [1]: 0.176 nM
- HEK-Blue IL-18R reporter EC50 [2]: 0.00191 nM

B4: C151 (ligand)
chain: YFGKLESKLSIIRNLNDQVLFIDQGNRPLFEDMTASDARDNAPRTIFIISMYADSQPRGMAVTISVKCEKISTLSAENKIISFKEMNPPDNIKDTKSDIIFFQRSVPGHDNKMQFESSSYEGYFLAAEKERDLFKLILKKEDELGDRSIMFTVQNED
- EC50 (IFNγ stimulation, NK92) [1]: 0.061 nM
- HEK-Blue IL-18R reporter EC50 [2]: 0.0131 nM

B5: C158 (ligand)
chain: YFGKLESKLSIIRNLNDQVLFIDQGNRPLFEDMTDSDARDNAPRTIFIISMYADSQPRGMAVTISVKCEKISTLSAENKIISFKEMNPPDNIKDTKSDIIFFQRSVPAHDNKMQFESSSYEGYFLAAEKERDLFKLILKKEDELGDRSIMFTVQNED
- EC50 (IFNγ stimulation, NK92) [1]: 0.073 nM
- HEK-Blue IL-18R reporter EC50 [2]: 0.0156 nM

B6: C152 (ligand)
chain: YFGKLESKLSIIRNLNDQVLFIDQGNRPLFEDMTDADARDNAPRTIFIISMYADSQPRGMAVTISVKCEKISTLSAENKIISFKEMNPPDNIKDTKSDIIFFQRSVPGHDNKMQFESSSYEGYFLAAEKERDLFKLILKKEDELGDRSIMFTVQNED
- EC50 (IFNγ stimulation, NK92) [1]: 0.033 nM
- HEK-Blue IL-18R reporter EC50 [2]: 0.00025 nM

B7: C149 (ligand)
chain: YFGKLESKLSIIRNLNDQVLFIDQGNRPLFADMTDSDARDNAPRTIFIISMYADSQPRGMAVTISVKCEKISTLSAENKIISFKEMNPPDNIKDTKSDIIFFQRSVPGHDNKMQFESSSYEGYFLAAEKERDLFKLILKKEDELGDRSIMFTVQNED
- EC50 (IFNγ stimulation, NK92) [1]: 0.187 nM
- HEK-Blue IL-18R reporter EC50 [2]: 0.0066 nM

B8: C155 (ligand)
chain: YFGKLESKLSIIRNLNDQVLFIDQGNRPLFEDMTDSDARANAPRTIFIISMYADSQPRGMAVTISVKCEKISTLSAENKIISFKEMNPPDNIKDTKSDIIFFQRSVPGHDNKMQFESSSYEGYFLAAEKERDLFKLILKKEDELGDRSIMFTVQNED
- EC50 (IFNγ stimulation, NK92) [1]: 0.067 nM
- HEK-Blue IL-18R reporter EC50 [2]: 0.00052 nM

B9: C156 (ligand)
chain: YFGKLESKLSIIRNLNDQVLFIDQGNRPLFEDMTDSDARDAAPRTIFIISMYADSQPRGMAVTISVKCEKISTLSAENKIISFKEMNPPDNIKDTKSDIIFFQRSVPGHDNKMQFESSSYEGYFLAAEKERDLFKLILKKEDELGDRSIMFTVQNED
- EC50 (IFNγ stimulation, NK92) [1]: 0.558 nM
- HEK-Blue IL-18R reporter EC50 [2]: 0.0117 nM

B10: C159 (ligand)
chain: YFGKLESKLSIIRNLNDQVLFIDQGNRPLFEDMTDSDARDNAPRTIFIISMYADSQPRGMAVTISVKCEKISTLSAENKIISFKEMNPPDNIKDTKSDIIFFQRSVPGADNKMQFESSSYEGYFLAAEKERDLFKLILKKEDELGDRSIMFTVQNED
- EC50 (IFNγ stimulation, NK92) [1]: 0.123 nM
- HEK-Blue IL-18R reporter EC50 [2]: 0.0195 nM

B11: C154 (ligand)
chain: YFGKLESKLSIIRNLNDQVLFIDQGNRPLFADMTDSAARDNAPRTIFIISMYADSQPRGMAVTISVKCEKISTLSAENKIISFKEMNPPDNIKDTKSDIIFFQRSVPGHDNKMQFESSSYEGYFLAAEKERDLFKLILKKEDELGDRSIMFTVQNED
- EC50 (IFNγ stimulation, NK92) [1]: 0.062 nM
- HEK-Blue IL-18R reporter EC50 [2]: 0.0119 nM

B12: C150 (ligand)
chain: YFGKLESKLSIIRNLNDQVLFIDQGNRPLFEDMADSDARDNAPRTIFIISMYADSQPRGMAVTISVKCEKISTLSAENKIISFKEMNPPDNIKDTKSDIIFFQRSVPGHDNKMQFESSSYEGYFLAAEKERDLFKLILKKEDELGDRSIMFTVQNED
- EC50 (IFNγ stimulation, NK92) [1]: 0.015 nM
- HEK-Blue IL-18R reporter EC50 [2]: 0.0007 nM

B13: C167 (ligand)
chain: YFGKLESKLSIIRNLNDQVLFIDQGNRPLFEDMTDSDARDNAPRTIFIISMYKDSQPRGMAVTISVKCEKISTLSAENKIISFKEMNPPDNIKDTKSDIIFFQRIVPGHDNKMQFESSSYEGYFLAAEKERDLFKLILKKEDELGDRSIMFTVQNED
- EC50 (IFNγ stimulation, NK92) [1]: 0.103 nM
- HEK-Blue IL-18R reporter EC50 [2]: 0.00537 nM

B14: C163 (ligand)
chain: YFGKLESKLSIIRNLNDQVLFIDQGNRPLFEDMTDSDARDNAPRTIFIISMYKDSQPRGMAVTISVKCEKISTLSAENKIISFKEMNPPDNIKDTKSDIIFFKRSVPGHDNKMQFESSSYEGYFLAAEKERDLFKLILKKEDELGDRSIMFTVQNED
- EC50 (IFNγ stimulation, NK92) [1]: 0.093 nM
- HEK-Blue IL-18R reporter EC50 [2]: 0.0015 nM

B15: C153 (ligand)
chain: YFGKLESKLSIIRNLNDQVLFIDQGNRPLFEDMTDSAARDNAPRTIFIISMYADSQPRGMAVTISVKCEKISTLSAENKIISFKEMNPPDNIKDTKSDIIFFQRSVPGHDNKMQFESSSYEGYFLAAEKERDLFKLILKKEDELGDRSIMFTVQNED
- EC50 (IFNγ stimulation, NK92) [1]: 0.175 nM
- HEK-Blue IL-18R reporter EC50 [2]: 0.0141 nM

B16: C164 (ligand)
chain: YFGKLESKLSIIRNLNDQVLFIDQGNRPLFEDMTDSDARDNAPRTIFIISMYKDHQPRGMAVTISVKCEKISTLSAENKIISFKEMNPPDNIKDTKSDIIFFQRSVPGHDNKMQFESSSYEGYFLAAEKERDLFKLILKKEDELGDRSIMFTVQNED
- EC50 (IFNγ stimulation, NK92) [1]: 0.414 nM
- HEK-Blue IL-18R reporter EC50 [2]: 0.00314 nM

B17: C161 (ligand)
chain: YFGKLESRLSIIRNLNDQVLFIDQGNRPLFEDMTDSDARDNAPRTIFIISMYKDSQPRGMAVTISVKCEKISTLSAENKIISFKEMNPPDNIKDTKSDIIFFERSVPGHDNKMQFESSSYEGYFLAAEKERDLFKLILKKEDELGDRSIMFTVQNED
- EC50 (IFNγ stimulation, NK92) [1]: 0.057 nM
- HEK-Blue IL-18R reporter EC50 [2]: 0.00201 nM

B18: C160 (ligand)
chain: YFGKLESKLSIIRNLNDQVLFIDQGNRPLFEDMTDSDARDNAPRTIFIISMYADSQPRGMAVTISVKCEKISTLSAENKIISFKEMNPPDNIKDTKSDIIFFQRSVPGHANKMQFESSSYEGYFLAAEKERDLFKLILKKEDELGDRSIMFTVQNED
- EC50 (IFNγ stimulation, NK92) [1]: 0.028 nM
- HEK-Blue IL-18R reporter EC50 [2]: 0.00202 nM

B19: C162 (ligand)
chain: YFGKLESELSIIRNLNDQVLFIDQGNRPLFEDMTDSDARDNAPRTIFIISMYKDSQPRGMAVTISVKCEKISTLSAENKIISFKEMNPPDNIKDTKSDIIFFRRSVPGHDNKMQFESSSYEGYFLAAEKERDLFKLILKKEDELGDRSIMFTVQNED
- EC50 (IFNγ stimulation, NK92) [1]: 0.061 nM
- HEK-Blue IL-18R reporter EC50 [2]: 0.0023 nM

B20: C166 (ligand)
chain: YFGKLESKLSIIRNLNDQVLFIDQGNRPLFEDMTDSDARDNAPRTIFIISMYKDTQPRGMAVTISVKCEKISTLSAENKIISFKEMNPPDNIKDTKSDIIFFQRSVPGHDNKMQFESSSYEGYFLAAEKERDLFKLILKKEDELGDRSIMFTVQNED
- EC50 (IFNγ stimulation, NK92) [1]: 0.098 nM
- HEK-Blue IL-18R reporter EC50 [2]: 0.00473 nM
